Positions count from the first letter of the chain named. Names may count otherwise.
B1: PSMB1045 (bispecific antibody, human IgG1, kappa, L234A L235A)
heavy: not shown
light: not shown
chain: SYELMQPPSVSVSPGQTARITCSGDALPKQYAYWYQQKPGQAPVLVIYKDSERPSGIPVRFSGSSSGTTVTLTITGVQAEDEADYYCQSADSSGTYVFGTGTKVTVLGGSEGKSSGSGSESKSTGGSQVQLVESGGGVVQPGRSLRLSCAASGFTFSSYNMNWVRQAPGKGLEWVAIIYYDGSNKYYADSVKGRFTISRDISKNTLYLQMNSLRAEDTAVYYCARERGRDYYGMDVWGQGTTVTVSSEPKSSDKTHTCPPCPAPEAAGGPSVFLFPPKPKDTLMISRTPEVTCVVVSVSHEDPEVKFNWYVDGVEVHNAKTKPREEQYNSTYRVVSVLTVLHQDWLNGKEYKCKVSNKALPAPIEKTISKAKGQPREPQVYVLPPSREEMTKNQVSLLCLVKGFYPSDIAVEWESNGQPENNYLTWPPVLDSDGSFFLYSKLTVDKSRWQQGNVFSCSVMHEALHNHYTQKSLSLSPG
notes: HC1 (ZWA): B23B62-Fab; LC2 is NA
B2: PSMB1049 (bispecific antibody, human IgG1, kappa, L234A L235A)
heavy: not shown
light: not shown
chain: QSVLTQPASVSGSPGQSITISCTGTSSDVGGYNYVSWYQQHPGKAPKLMIYEVSNRPSGVSNRFSGSKSGNTASLTISGLQAEDEADYYCSSYTSSYTYVFGTGTKLTVLGGSEGKSSGSGSESKSTGGSEVQLVESGGDLVQPGGSLRLSCAASGFTFNNYNMNWVRQAPGKGLEWVSHISTSSSNKYYADSVKGRFSISRDIAKNSMYLQMNSLRDEDTAVYYCARDGVGADYGDYYYYGMDVWGQGTTVTVSSEPKSSDKTHTCPPCPAPEAAGGPSVFLFPPKPKDTLMISRTPEVTCVVVSVSHEDPEVKFNWYVDGVEVHNAKTKPREEQYNSTYRVVSVLTVLHQDWLNGKEYKCKVSNKALPAPIEKTISKAKGQPREPQVYVLPPSREEMTKNQVSLLCLVKGFYPSDIAVEWESNGQPENNYLTWPPVLDSDGSFFLYSKLTVDKSRWQQGNVFSCSVMHEALHNHYTQKSLSLSPG
notes: as for B1
B3: PSMB1051 (bispecific antibody, human IgG1, kappa, L234A L235A)
heavy: not shown
light: not shown
chain: QSVLTQPPSASGTPGQGVTISCSGSSSNIGSNTVNWFQQLPGTAPKLLIYSDNQRPSGVPDRFSGSKSGTSASLAISGLQSEDEADYYCAAWDDSLNGYVFGTGTKVTVLGGSEGKSSGSGSESKSTGGSEVQLVESGGGVVQPGRSLRLSCAASGFTFITYGMHWVRQAPGKGLEWVAVVSFDESNKYYADSVKGRFTISRDNSKNTLYLQMNSLRAEDTAVYYCARALRDGNNWDYFNGMDVWGQGTTVTVSSEPKSSDKTHTCPPCPAPEAAGGPSVFLFPPKPKDTLMISRTPEVTCVVVSVSHEDPEVKFNWYVDGVEVHNAKTKPREEQYNSTYRVVSVLTVLHQDWLNGKEYKCKVSNKALPAPIEKTISKAKGQPREPQVYVLPPSREEMTKNQVSLLCLVKGFYPSDIAVEWESNGQPENNYLTWPPVLDSDGSFFLYSKLTVDKSRWQQGNVFSCSVMHEALHNHYTQKSLSLSPG
notes: as for B1
B4: PSMB1068 (bispecific antibody, human IgG1, kappa, L234A L235A)
heavy: not shown
light: not shown
chain: QVQLQESGGDVVQPGRSLRLSCAASGFSFSGYGLHWVRQAPGRGLEWVTLISYDGSNKYYADSVKGRFTISRDNSKNTLYLQMNSLRAEDTAVYYCAKTTVSDPYYYGMDVWGQGTTVTVSSGGSEGKSSGSGSESKSTGGSSYELTQPPSVSVAPGQTARITCGGNNIGSKSVHWYQQKPGQAPVLVVYDDSDRPSGIPERFSGTNSGNTATLTISRAEAGDEADYYCQVWDSSSDHVVFGGGTKLTVLEPKSSDKTHTCPPCPAPEAAGGPSVFLFPPKPKDTLMISRTPEVTCVVVSVSHEDPEVKFNWYVDGVEVHNAKTKPREEQYNSTYRVVSVLTVLHQDWLNGKEYKCKVSNKALPAPIEKTISKAKGQPREPQVYVLPPSREEMTKNQVSLLCLVKGFYPSDIAVEWESNGQPENNYLTWPPVLDSDGSFFLYSKLTVDKSRWQQGNVFSCSVMHEALHNHYTQKSLSLSPG
notes: as for B1
B5: BC3B102 (bispecific antibody, human IgG1, kappa, L234A L235A)
chain: QVQLVQSGAEVKKPGSSVKVSCKASGYTFTRSTMHWVKQAPGQGLEWIGYINPSSAYTNYNQKFQGRVTLTADKSTSTAYMELSSLRSEDTAVYYCASPQVHYDYNGFPYWGQGTLVTVSSGGSEGKSSGSGSESKSTGGSEIVLTQSPATLSASPGERVTLSCSASSSVSYMNWYQQKPGQAPRRWIYDSSKLASGVPARFSGSGSGRDYTLTISSLEPEDFAVYYCQQWSRNPPTFGGGTKVEIKEPKSSDKTHTCPPCPAPEAAGGPSVFLFPPKPKDTLMISRTPEVTCVVVSVSHEDPEVKFNWYVDGVEVHNAKTKPREEQYNSTYRVVSVLTVLHQDWLNGKEYKCKVSNKALPAPIEKTISKAKGQPREPQVYVYPPSREEMTKNQVSLTCLVKGFYPSDIAVEWESNGQPENNYKTTPPVLDSDGSFALVSKLTVDKSRWQQGNVFSCSVMHEALHNHYTQKSLSLSPG
heavy: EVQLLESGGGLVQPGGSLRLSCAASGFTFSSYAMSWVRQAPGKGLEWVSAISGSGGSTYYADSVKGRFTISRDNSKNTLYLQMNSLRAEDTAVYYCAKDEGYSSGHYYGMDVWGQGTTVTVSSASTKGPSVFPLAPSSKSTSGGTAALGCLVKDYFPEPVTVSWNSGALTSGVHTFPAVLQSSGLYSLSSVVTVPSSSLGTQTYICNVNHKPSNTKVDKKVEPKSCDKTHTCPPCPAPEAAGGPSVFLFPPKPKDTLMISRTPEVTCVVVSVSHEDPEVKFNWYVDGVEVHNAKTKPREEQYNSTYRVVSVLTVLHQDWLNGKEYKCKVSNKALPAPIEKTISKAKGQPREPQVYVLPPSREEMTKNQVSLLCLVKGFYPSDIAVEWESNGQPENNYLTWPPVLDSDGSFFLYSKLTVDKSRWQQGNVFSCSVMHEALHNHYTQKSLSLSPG
light: EIVLTQSPGTLSLSPGERATLSCRASQSISSSFLTWYQQKPGQAPRLLIYGASSRATGIPDRFSGGGSGTDFTLTISRLEPEDFAVYYCQHYGSSPMYTFGQGTKLEIKRTVAAPSVFIFPPSDEQLKSGTASVVCLLNNFYPREAKVQWKVDNALQSGNSQESVTEQDSKDSTYSLSSTLTLSKADYEKHKVYACEVTHQGLSSPVTKSFNRGEC
notes: IgG1 BCMAxCD3; HC1: CD3B2030 HL scFv-Fc; also called BC3B102.001; B2030 HL
B6: BC3B106 (bispecific antibody, human IgG1, kappa, L234A L235A)
chain: B5 chain with I48M, W187L
heavy: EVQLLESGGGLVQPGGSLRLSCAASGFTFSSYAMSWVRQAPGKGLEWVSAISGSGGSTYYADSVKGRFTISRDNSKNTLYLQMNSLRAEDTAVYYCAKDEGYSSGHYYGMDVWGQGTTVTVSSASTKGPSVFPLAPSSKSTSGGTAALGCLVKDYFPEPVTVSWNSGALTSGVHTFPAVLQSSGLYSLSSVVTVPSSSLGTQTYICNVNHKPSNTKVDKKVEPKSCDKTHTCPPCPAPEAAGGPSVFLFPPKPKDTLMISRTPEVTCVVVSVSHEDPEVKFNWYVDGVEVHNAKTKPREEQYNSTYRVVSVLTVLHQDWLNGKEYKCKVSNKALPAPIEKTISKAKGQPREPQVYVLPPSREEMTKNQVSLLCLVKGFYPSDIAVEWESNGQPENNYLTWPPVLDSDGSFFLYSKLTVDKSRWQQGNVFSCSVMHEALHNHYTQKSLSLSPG
light: B5 light
notes: IgG1 BCMAxCD3; HC1: CD3B2051 HL scFv-Fc; also called BC3B106.001; B2051 HL
B7: BC3B111 (bispecific antibody, human IgG1, kappa, L234A L235A)
chain: B5 chain with K38R, I48M, N61A
heavy: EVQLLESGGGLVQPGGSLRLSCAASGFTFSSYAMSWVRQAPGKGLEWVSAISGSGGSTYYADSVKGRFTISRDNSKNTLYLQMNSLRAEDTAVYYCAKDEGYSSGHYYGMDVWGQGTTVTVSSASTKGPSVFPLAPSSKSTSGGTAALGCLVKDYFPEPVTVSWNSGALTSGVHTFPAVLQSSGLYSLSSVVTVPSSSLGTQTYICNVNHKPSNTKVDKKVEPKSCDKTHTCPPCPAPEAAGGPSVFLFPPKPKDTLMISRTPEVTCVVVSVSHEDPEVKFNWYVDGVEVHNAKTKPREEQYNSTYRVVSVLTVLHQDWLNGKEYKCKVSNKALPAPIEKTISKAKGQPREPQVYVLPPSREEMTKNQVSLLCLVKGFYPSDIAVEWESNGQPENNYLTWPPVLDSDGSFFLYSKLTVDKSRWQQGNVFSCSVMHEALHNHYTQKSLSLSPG
light: B5 light
notes: IgG1 BCMAxCD3; HC1: CD3B2089 HL scFv-Fc; also called BC3B111.001; B2089 HL
B8: BC3B112 (bispecific antibody, human IgG1, kappa, L234A L235A)
chain: B5 chain with K38R, I48M, N61A, N106A
heavy: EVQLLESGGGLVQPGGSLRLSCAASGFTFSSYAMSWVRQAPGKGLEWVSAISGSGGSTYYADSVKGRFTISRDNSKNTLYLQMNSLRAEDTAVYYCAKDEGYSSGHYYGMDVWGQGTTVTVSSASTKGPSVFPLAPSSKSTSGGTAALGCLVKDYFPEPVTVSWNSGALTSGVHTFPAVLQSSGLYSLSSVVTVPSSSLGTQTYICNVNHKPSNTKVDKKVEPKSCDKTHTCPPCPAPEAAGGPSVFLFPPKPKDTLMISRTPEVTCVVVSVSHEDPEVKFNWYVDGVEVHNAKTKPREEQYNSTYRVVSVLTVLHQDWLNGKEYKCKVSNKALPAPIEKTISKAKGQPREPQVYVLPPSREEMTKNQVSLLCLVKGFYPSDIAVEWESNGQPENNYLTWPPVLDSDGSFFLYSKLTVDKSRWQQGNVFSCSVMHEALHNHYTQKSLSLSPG
light: B5 light
notes: IgG1 BCMAxCD3; HC1: CD3B2089-N106A HL scFv-Fc; also called BC3B112.001; B2089 HL NtoA
B9: BC3B116 (bispecific antibody, human IgG1, kappa, L234A L235A)
chain: EIVLTQSPATLSASPGERVTLSCSASSSVSYMNWYQQKPGQAPRRWIYDSSKLASGVPARFSGSGSGRDYTLTISSLEPEDFAVYYCQQWSRNPPTFGGGTKVEIKGGSEGKSSGSGSESKSTGGSQVQLVQSGAEVKKPGSSVKVSCKASGYTFTRSTMHWVKQAPGQGLEWIGYINPSSAYTNYNQKFQGRVTLTADKSTSTAYMELSSLRSEDTAVYYCASPQVHYDYNGFPYWGQGTLVTVSSEPKSSDKTHTCPPCPAPEAAGGPSVFLFPPKPKDTLMISRTPEVTCVVVSVSHEDPEVKFNWYVDGVEVHNAKTKPREEQYNSTYRVVSVLTVLHQDWLNGKEYKCKVSNKALPAPIEKTISKAKGQPREPQVYVYPPSREEMTKNQVSLTCLVKGFYPSDIAVEWESNGQPENNYKTTPPVLDSDGSFALVSKLTVDKSRWQQGNVFSCSVMHEALHNHYTQKSLSLSPG
heavy: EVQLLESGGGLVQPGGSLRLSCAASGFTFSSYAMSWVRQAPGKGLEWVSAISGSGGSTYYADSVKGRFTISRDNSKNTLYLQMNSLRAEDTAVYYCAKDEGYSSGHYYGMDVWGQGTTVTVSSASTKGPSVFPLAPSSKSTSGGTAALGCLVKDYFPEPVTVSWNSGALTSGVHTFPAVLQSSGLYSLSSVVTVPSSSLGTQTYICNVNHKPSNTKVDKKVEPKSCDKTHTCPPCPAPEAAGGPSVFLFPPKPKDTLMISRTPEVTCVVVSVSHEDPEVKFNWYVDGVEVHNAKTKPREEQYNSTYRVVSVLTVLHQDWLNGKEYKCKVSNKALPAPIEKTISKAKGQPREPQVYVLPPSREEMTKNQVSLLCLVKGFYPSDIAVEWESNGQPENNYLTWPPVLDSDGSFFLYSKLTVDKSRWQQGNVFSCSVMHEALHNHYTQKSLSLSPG
light: B5 light
notes: IgG1 BCMAxCD3; HC1: CD3B2030 LH scFv-Fc; also called BC3B116.001; B2030 LH
B10: BC3B120 (bispecific antibody, human IgG1, kappa, L234A L235A)
chain: B9 chain with W46L, I174M
heavy: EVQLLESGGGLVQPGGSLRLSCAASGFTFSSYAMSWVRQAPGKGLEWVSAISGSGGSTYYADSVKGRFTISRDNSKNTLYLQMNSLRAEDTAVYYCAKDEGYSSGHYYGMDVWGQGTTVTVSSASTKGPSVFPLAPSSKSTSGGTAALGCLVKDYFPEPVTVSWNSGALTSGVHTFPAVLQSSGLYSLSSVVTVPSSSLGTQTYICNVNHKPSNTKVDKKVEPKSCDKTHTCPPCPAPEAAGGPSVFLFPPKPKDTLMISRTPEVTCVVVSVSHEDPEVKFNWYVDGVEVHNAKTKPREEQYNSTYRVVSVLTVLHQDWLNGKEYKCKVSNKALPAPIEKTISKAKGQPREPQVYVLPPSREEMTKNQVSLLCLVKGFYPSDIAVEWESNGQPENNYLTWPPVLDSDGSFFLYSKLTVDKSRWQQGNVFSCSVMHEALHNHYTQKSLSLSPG
light: B5 light
notes: IgG1 BCMAxCD3; HC1: CD3B2051 LH scFv-Fc; also called BC3B120.001; B2051 LH
B11: BC3B124 (bispecific antibody, human IgG1, kappa, L234A L235A)
chain: B9 chain with W46L, I174M, N232S
heavy: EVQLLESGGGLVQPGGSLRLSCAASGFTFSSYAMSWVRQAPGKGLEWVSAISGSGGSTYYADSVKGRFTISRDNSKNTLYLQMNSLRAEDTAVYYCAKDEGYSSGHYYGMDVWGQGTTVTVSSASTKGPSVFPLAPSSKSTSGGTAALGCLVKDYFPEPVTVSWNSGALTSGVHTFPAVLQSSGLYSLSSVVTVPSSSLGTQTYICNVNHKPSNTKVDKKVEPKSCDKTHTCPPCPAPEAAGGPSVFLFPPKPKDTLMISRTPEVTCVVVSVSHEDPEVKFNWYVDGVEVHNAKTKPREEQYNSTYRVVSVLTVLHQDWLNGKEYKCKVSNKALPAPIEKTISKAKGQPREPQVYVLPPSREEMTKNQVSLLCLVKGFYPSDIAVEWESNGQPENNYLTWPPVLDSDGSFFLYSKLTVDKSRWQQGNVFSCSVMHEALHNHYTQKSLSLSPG
light: B5 light
notes: IgG1 BCMAxCD3; HC1: CD3B2051-N106S LH scFv-Fc; also called BC3B124.001; B2051 LH NtoS
B12: BC3B125 (bispecific antibody, human IgG1, kappa, L234A L235A)
chain: B9 chain with K164R, I174M, N187A
heavy: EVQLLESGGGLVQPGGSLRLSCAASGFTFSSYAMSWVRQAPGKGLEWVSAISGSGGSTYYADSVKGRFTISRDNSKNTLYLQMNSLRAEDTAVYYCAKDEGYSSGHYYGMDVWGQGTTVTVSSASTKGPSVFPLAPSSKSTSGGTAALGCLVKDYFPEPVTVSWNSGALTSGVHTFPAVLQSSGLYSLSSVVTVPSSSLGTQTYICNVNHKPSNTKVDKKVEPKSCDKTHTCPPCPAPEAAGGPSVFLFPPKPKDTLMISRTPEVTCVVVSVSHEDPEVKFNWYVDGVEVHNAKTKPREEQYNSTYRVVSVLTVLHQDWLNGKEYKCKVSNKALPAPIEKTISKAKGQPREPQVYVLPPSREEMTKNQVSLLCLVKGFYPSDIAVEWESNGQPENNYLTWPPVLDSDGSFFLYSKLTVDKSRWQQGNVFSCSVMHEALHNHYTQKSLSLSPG
light: B5 light
notes: IgG1 BCMAxCD3; HC1: CD3B2089 LH scFv-Fc; also called BC3B125.001; B2089 LH

Each binder was assayed against T1, human PSMA on prostate cancer cell lines (22RV1, C4-2B) (human, UniProt Q04609 1-750) (assay: flow cytometry on C4-2B cells, four-parameter fit).
T1 construct: also called PSMA-expressing cell lines
T1 sequence (Q04609 whole entry): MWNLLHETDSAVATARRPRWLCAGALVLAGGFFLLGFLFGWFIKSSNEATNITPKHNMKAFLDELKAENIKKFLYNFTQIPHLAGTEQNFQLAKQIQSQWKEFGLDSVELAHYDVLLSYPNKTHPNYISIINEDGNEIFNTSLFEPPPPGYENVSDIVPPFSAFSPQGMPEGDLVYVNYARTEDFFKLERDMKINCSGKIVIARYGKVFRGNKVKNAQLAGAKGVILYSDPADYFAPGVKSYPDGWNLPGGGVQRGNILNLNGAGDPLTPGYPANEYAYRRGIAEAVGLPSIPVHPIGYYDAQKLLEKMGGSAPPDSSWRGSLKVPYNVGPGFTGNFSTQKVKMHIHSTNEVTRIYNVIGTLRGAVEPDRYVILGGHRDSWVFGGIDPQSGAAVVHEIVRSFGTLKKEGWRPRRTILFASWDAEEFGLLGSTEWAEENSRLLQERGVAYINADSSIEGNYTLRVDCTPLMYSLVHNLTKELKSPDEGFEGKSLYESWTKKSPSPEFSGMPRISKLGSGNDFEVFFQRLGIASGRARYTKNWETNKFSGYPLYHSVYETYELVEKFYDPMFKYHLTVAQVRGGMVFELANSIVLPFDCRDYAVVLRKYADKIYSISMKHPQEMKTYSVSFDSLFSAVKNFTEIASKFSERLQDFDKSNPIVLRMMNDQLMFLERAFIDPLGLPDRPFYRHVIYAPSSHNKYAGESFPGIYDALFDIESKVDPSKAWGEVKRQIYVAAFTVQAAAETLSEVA
Protocol: Molecule concentrations ranged from 500-0 nM over 12-points at 3-fold dilution. […] Values reported in the Table 69 were generated by fitting the data to a four-parameter function for ligand binding generating values for y-min, y-max, EC50, and Hill. EC90 were calculated using the equation EC90=[…]\hat{ }(1/Hill)*EC50.

B1 and B2 are within 1.5-fold of each other in EC50: 7 nM for the first, 5 nM for the second.

B3 and B4 are within 1.5-fold of each other in EC50: 10 nM for the first, 8 nM for the second.

First: B1
Second: B2
The EC90 of the first is 6.2-fold higher: 248 nM for the first, 40 nM for the second.

First: B3
Second: B4
The EC90 of the first is 3.2-fold lower: 76 nM for the first, 247 nM for the second.

First: B1
Second: B2
The Y-max of the first is higher: 1.8e+06 for the first, 1.5e+06 for the second.

Going from B3 to B4, the Y-max rises from 1.5e+06 to 1.9e+06.

Compared with B1, B2 is higher in Y-min: 53000 for the first, 84000 for the second.

Compared with B3, B4 is lower in Y-min: 67000 for the first, 48000 for the second.

Each binder was assayed against T2, Human CD3 epsilon (CD3ε), on primary human pan T cells (human, UniProt P07766 23-207) (assay: flow cytometry on human T cells, anti-human IgG Fc A647 detection).
T2 construct: Endogenous CD3 in the TCR complex on T cells; also called T-cell surface glycoprotein CD3 epsilon chain; T3E
T2 sequence (P07766 23-207 limits assumed): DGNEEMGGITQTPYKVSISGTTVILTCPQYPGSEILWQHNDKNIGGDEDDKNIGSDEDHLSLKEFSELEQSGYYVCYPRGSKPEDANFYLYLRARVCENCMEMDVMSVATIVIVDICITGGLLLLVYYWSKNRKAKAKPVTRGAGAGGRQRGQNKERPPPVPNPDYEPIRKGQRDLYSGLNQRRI
Protocol: The bsAbs were assayed for their abilities bind T cells and to induce T-cell mediated cytotoxicity against H929 cells (ATCC@CRL-9068™). […] Stain buffer with no antibody was added to bottom 4 wells and assign as background control (secondary antibody alone). Parental Cris7b, CD3B695 (bivalent mAb controls) and CD3B375 (bsAb which was monovalent for Cris-7b) were added also with full dose-response curves.
Frozen T-cells were thawed in a 37° C. water bath and transferred gently into conical tube containing warm 5 mL media (RPMI+10% FBS)/1 vial of 1×10⁶ cells. Cells were mixed and centrifuged for 5 minutes at 400×g followed by resuspension in flow staining buffer, and counted and viability checked. Cells were then plated in 50 uL/50,000 cells/well into assay plates. Assay positive control mAb was added in the first column in quadruplicates at 2× at 20 nM in the bottom 4 wells. Stain buffer with no mAb was added to the top 4 wells and assigned as background controls (secondary antibody alone). Serially diluted antibody samples were added at 50 uL/well using Intergra Viaflo according to the attached plate maps and incubated for 1 hr at 37° C. After one hour incubation, 150 uL staining buffer were added to all wells, and cells were spun at 500×g for 5 minutes to pellet cells. Cells were then washed prior to addition of Alexa Fluor 647 (A647) conjugated anti human IgG Fc specific secondary detection antibody at 2 ug/mL in staining buffer. Secondary detection antibody was added at 50 uL/well to the washed cells. Plates were covered with foil and incubated for 30 minutes on ice or in the fridge. 150 uL staining buffer were added to all wells, and cells were spun at 500×g for 5 min to pellet cells. Cells were resuspended in 20 uL running buffer containing 1:1000 dilution of SYTOX™ green dead cell stain and run plates on iQue® Screener flow cytometer (Essen BioScience, Inc.). Briefly, cells were gated on FCS vs. SCS dot plot to eliminate debris. Singlets were gated on SCS-A vs SCS-H dot plot and from singlet population, live cells gated choosing BL1 channel for low/negative with SYTOX™ green viability stain (Thermo Fisher).

Going from B5 to B6, the EC50 rises from 3 nM to 6.8 nM (2.3-fold). The first is the more potent here.

First: B7
Second: B8
The EC50 of the first is lower: 6.4 nM for the first, ≥ 300 nM for the second. The first is the more potent here.

First: B9
Second: B10
The EC50 of the first is 4.6-fold lower: 21.8 nM for the first, 100 nM for the second.

First: B11
Second: B12
The EC50 of the first is 8.1-fold higher: 300 nM for the first, 36.9 nM for the second. The second is the more potent here.

What follows are binders tested against T3, recombinant human PSMA (human, UniProt Q04609 44-750) (assay: SPR (Biacore 8K), antibody captured on anti-Fc, PSMA in solution).
T3 construct: also called hu PSMA; prostate-specific membrane antigen
T3 sequence (Q04609 44-750 limits assumed): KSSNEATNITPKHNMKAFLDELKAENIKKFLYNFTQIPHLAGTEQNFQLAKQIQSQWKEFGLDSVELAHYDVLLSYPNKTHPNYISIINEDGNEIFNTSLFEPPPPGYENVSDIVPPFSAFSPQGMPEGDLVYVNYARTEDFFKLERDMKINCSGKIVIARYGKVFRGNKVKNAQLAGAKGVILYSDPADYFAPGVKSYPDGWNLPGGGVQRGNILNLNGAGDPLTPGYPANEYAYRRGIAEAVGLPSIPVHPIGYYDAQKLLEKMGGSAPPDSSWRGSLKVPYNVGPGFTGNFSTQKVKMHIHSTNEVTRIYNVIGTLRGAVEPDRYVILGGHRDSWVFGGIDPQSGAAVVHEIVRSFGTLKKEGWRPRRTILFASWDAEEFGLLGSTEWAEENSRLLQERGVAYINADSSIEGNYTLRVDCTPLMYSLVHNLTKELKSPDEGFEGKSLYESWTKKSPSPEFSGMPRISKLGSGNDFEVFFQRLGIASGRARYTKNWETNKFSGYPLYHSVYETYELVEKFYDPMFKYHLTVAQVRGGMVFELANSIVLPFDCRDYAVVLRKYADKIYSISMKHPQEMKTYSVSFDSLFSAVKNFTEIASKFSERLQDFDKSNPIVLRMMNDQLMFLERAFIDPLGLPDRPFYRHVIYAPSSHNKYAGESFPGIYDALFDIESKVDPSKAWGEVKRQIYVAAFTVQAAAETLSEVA
Protocol: The antibodies were captured on a goat anti-Fc antibody-modified C1 chip and titrated with 3-fold serial dilutions of PSMA antigen spanning concentrations of 1 nM to 100 nM human PSMA. The association and dissociation were monitored for 3 and 30 minutes, respectively, using a flow rate of 50 μL/min. Raw binding data was referenced by subtracting the analyte binding signals from blanks and analyzed using a 1:1 Langmuir binding model by the Biacore Insight evaluation software to obtain the kinetics which were used to calculate the binding affinity. The anti-PSMA were captured using an anti-human Fc antibody and the antigens were injected in solution.

First: B1
Second: B2
The Kd of the first is 2-fold lower: 0.333 nM for the first, 0.657 nM for the second. The first binds more tightly here.

B3 and B4 are within 1.5-fold of each other in Kd: 1.01 nM for the first, 1.11 nM for the second.

B1 and B2 are within 1.5-fold of each other in koff: 6.98e-05 s⁻¹ for the first, 7.02e-05 s⁻¹ for the second.

Going from B3 to B4, the koff rises from 7.75e-05 s⁻¹ to 0.000168 s⁻¹ (2.2-fold).

First: B1
Second: B2
The kon of the first is 2-fold higher: 209000 M⁻¹ s⁻¹ for the first, 107000 M⁻¹ s⁻¹ for the second.

Compared with B3, B4 is 2-fold higher in kon: 77100 M⁻¹ s⁻¹ for the first, 151000 M⁻¹ s⁻¹ for the second.

Reference: patent US20250145711A1 (Janssen / Centocor, published 2025)
